{"source": "paper PMC4367193", "about": "(Biochemistry, 2009)", "key": {"Aβ42WT [1]": {"target": "T1, Aβ42WT (Homo sapiens, UniProt P05067)", "T1 sequence (P05067 672-713 limits assumed)": "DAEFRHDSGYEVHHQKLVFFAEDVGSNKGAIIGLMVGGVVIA", "assay": "Circular dichroism spectroscopy, Aβ42WT β-sheet formation", "assay_type": "biochemical"}, "Aβ42WT [2]": {"target": "T1, Aβ42WT", "assay_type": "biochemical", "conditions": "37°C"}, "MBP/Aβ42WT interaction": {"test_system": "MBP/Aβ42WT interaction", "assay": "Competitive co-immunoprecipitation, binding of Aβ42WT to MBP", "design": "species or system human", "conditions": "data not shown"}, "Aβ40WT": {"target": "Aβ40WT", "assay": "Surface plasmon resonance, binding to Aβ40WT", "conditions": "ECP negative control; SPR"}, "Aβ42WT [3]": {"target": "T1, Aβ42WT", "assay": "Surface plasmon resonance, binding to immobilised Aβ42WT"}, "Aβ40DI [4]": {"target": "Aβ40DI", "assay": "Surface plasmon resonance, binding to Aβ40DI", "conditions": "ECP negative control; SPR"}, "Aβ [5]": {"test_system": "Aβ", "assay_type": "binding, human", "conditions": "soluble cortical homogenate, polyclonal anti-MBP IgG, Fig. 1D"}, "Aβ40DI [6]": {"test_system": "Aβ40DI", "conditions": "previous study; ref [25] Hoos et al. 2007; cited from earlier work"}, "Aβ42WT [7]": {"target": "T1, Aβ42WT", "assay": "Attenuated total reflection infrared spectroscopy, Aβ42WT β-sheet formation", "assay_type": "biochemical", "conditions": "Aβ42 50 μM in PBS, MBP 6.25 μM, 37°C, 24 h; second-derivative ATR-IR"}, "Aβ42WT [8]": {"target": "T1, Aβ42WT", "assay": "Thioflavin T fluorescence assay, Aβ42WT fibril formation", "assay_type": "biochemical", "conditions": "Aβ42 12.5 μM, MBP 1.56 μM, 37°C, 150 mM NaCl; triplicate"}, "Aβ [9]": {"test_system": "Aβ", "assay_type": "binding, 5xFAD mouse", "conditions": "soluble cortical homogenate, polyclonal anti-MBP IgG, Fig. 1D"}}, "data": [{"molecule": "Aβ42WT: wild-type Aβ42 peptide, synthesized by solid-phase Fmoc chemistry", "values": [{"measurement": "Time at which β-sheet formation begins to plateau (CD, 215 nm)", "setting": "Aβ42WT [1]; Aβ42WT alone 50 μM, 37°C, 11 mM NaCl, results section", "result": 24, "unit": "h"}, {"measurement": "Length of oligomeric structures", "setting": "Aβ42WT [2]; Aβ42WT alone, 6 h", "result": "up to 40 nm"}, {"measurement": "Average height of fibrillar structures", "setting": "Aβ42WT [2]; Aβ42WT alone, 24 h", "result": "over 4 nm"}]}, {"molecule": "ECP: Eosinophil cationic protein, very similar charge and molecular mass compared to MBP, negative control (protein, UniProt P12724 28-160, looked up) Eosinophil cationic protein: RPPQFTRAQWFAIQHISLNPPRCTIAMRAINNYRWRCKNQNTFLRTTFANVVNVCGNQSIRCPHNRTLNNCHRSRFRVPLLHCDLINPGAQNISNCTYADRPGRRFYVVACDNRDPRDSPRYPVVPVHLDTTI", "values": [{"measurement": "Competition of ECP with MBP for binding to Aβ42", "setting": "MBP/Aβ42WT interaction", "result": "did not compete for MBP binding to Aβ42"}, {"measurement": "Binding affinity (KD) for Aβ40WT, ECP", "setting": "Aβ40WT", "result": "not detected"}, {"measurement": "Detectable binding to Aβ42WT ligand surface", "setting": "Aβ42WT [3]; concentrations up to 32-fold greater than MBP, SPR", "result": "No binding could be detected"}, {"measurement": "Binding affinity (KD) for Aβ40DI, ECP", "setting": "Aβ40DI [4]", "result": "not detected"}]}, {"molecule": "MBP: Purified human MBP (purchased from Chemicon International) (protein, UniProt P02686 1-304, looked up) Myelin basic protein: MGNHAGKRELNAEKASTNSETNRGESEKKRNLGELSRTTSEDNEVFGEADANQNNGTSSQDTAVTDSKRTADPKNAWQDAHPADPGSRPHLIRLFSRDAPGREDNTFKDRPSESDELQTIQEDSAATSESLDVMASQKRPSQRHGSKYLATASTMDHARHGFLPRHRDTGILDSIGRFFGGDRGAPKRGSGKDSHHPARTAHYGSLPQKSHGRTQDENPVVHFFKNIVTPRTPPPSQGKGRGLSLSRFSWGAEGQRPGFGYGGRASDYKSAHKGFKGVDAQGTLSKIFKLGGRDSRSGSPMARR", "values": [{"measurement": "Interaction of MBP with Aβ in human AD brain homogenate", "setting": "Aβ [5]", "result": "MBP can interact with Aβ peptides"}, {"measurement": "Inhibition of fibrillar assembly of Aβ40DI", "setting": "Aβ40DI [6]", "result": "effectively inhibits the fibrillar assembly of Aβ40DI"}, {"measurement": "Absolute CD ellipticity at 215 nm with MBP", "setting": "Aβ42WT [1]; MBP alone and Aβ42WT (50 μM) with MBP (6.25 μM), 37°C, 0-36 h", "result": "remained low and decreased somewhat over the course of incubation"}, {"measurement": "Conformation of MBP alone by CD", "setting": "Aβ42WT [1]; MBP alone, throughout the time-course, data not shown", "result": "characteristic random-coil conformation"}, {"measurement": "KD with Aβ42WT compared with Aβ40DI", "setting": "Aβ42WT [3]; calculated KD between MBP and Aβ42WT versus affinity between MBP and Aβ40DI (ref [25])", "result": "comparable to the affinity between MBP and Aβ40DI"}, {"measurement": "KD with Aβ42WT compared with Aβ40WT", "setting": "Aβ42WT [3]; calculated KD between MBP and Aβ42WT versus that between MBP and Aβ40WT (ref [25])", "result": "stronger than that between MBP and Aβ40WT"}, {"measurement": "β-turn peaks at 1681 and 1675 cm^−1 on addition of MBP", "setting": "Aβ42WT [7]", "result": "remained unchanged even with the addition of MBP"}, {"measurement": "Oligomeric structures at 6 h in the presence of MBP", "setting": "Aβ42WT [2]; 6 h, AFM and TEM", "result": "marked reduction"}, {"measurement": "Fibrils at 24 h in the presence of MBP", "setting": "Aβ42WT [2]; 24 h, TEM", "result": "noticeably absent"}, {"measurement": "Thioflavin-T fluorescence in samples containing Aβ42WT and MBP", "setting": "Aβ42WT [8]", "result": "lack of thioflavin-T fluorescence"}, {"measurement": "Interaction of MBP with Aβ in 5xFAD mouse brain homogenate", "setting": "Aβ [9]", "result": "MBP can interact with Aβ peptides"}]}]}
